Reference: the nanobody polyreactivity screen of Harvey et al. (2022)

Test: yeast display, Sf9 membrane polyspecificity reagent, FACS + sequencing; frameworks hold sequencing errors
In short: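 Sorting gates, low and high (top ~1%), were placed on anti-HA fluorescence to track expression and on streptavidin fluorescence to track reagent binding. A clone's polyreactivity label is taken from the gate it came out of. The reagent was 10% biotinylated, detergent-solubilized Sf9 membrane, applied for 1 hour at 4 °C to galactose-induced yeast display cells.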

| Sequence | polyreactivity (PSR sort gate) |
| --- | --- |
| QVQLVESGGGLVQAGGSLRLSCAASGYTFRAYVMGRYRQAPGKEREMVAGITRRGGTTYYADSVKGRFTISRDYAKNTVYLQMNSLKPEDTAVYYCTAVFRSGSIPYVSWGQGTQVTVSS | high polyreactivity |
| QVQLVESGGGLVQAGGSLRLSCAASGYTFRFNAMGWYRQAPGKEREFVAAIDFGGAGTYYADSVKGRFTISRDNAKNTVYLQMNSLKPEDTAVYYCNARDGVTTEFDYWGQGTQVTVSS | low polyreactivity |
| QVQLVESGGGLVQAGGSLRLSCAASGYTFRPYAMGSYIQAPGKERELVAAISSTGGRTYYADSVKGRFTISRDIAKNTVYVQMNSLKPEYTAVYYCAVLKVYRSSFDYCGQGTQVTVSS | high polyreactivity |
| QVQLVESGGGLVQAGGSLRLSCAASGYTFRYNALGWYRQAPGKERELVAAISSSGRTYYADSVKGRFTSSRDNAKNTVDLQMNSLKPDATAVYYCNAGPYAGARYRWGYDYWGQGTQVTVSS | high polyreactivity |
| QVQLVESGGGLVQAGGSLRLSCAASGYTFRYNAMGWYRQAPGKERELVATISRGGNTNYADSVKGRFTISRDNAKNPVYLQMISLKAEDTAVYYCAKVWRTFPYYSWGQGTQVTVSS | high polyreactivity |
| QVQLVESGGGLVQAGGSLRLSCAASGYTFRYYAMGWYRQAPVKERELVARITGRAGSTYYADSVKGRFTISRDNAKNTVYLQMNSLKPEDTAVYYCAASIREGFYWGQGTQVTVSS | high polyreactivity |
| QVQLVESGGGLVQAGGSLRLSCAASGYTFRYYVMGWYRQAPGKERELVAAISFSGGSTYYADSVKGRFTISRDTAKNSGYLQMKSLKPEDTAVYYCAARPGGGKYRGYYYWGQGTQVTVSS | high polyreactivity |
| QVQLVESGGGLVQAGGSLRLSCAASGYTFSDYAMGWYRQAPGKERELVAAISWSGGSTYYADSVKGRFTISRDNAKNTVFLQMNSLKPEDTAVYYCAAKWYAPDLLYYYWGQGTQVTVSS | low polyreactivity |
| QVQLVESGGGLVQAGGSLRLSCAASGYTFSHYAMGWYRQAPGKERELVAGITWSGGSTYYADSVKGRFTISRDYAKNTVYLQMNSLKPEDTSVYYCAAKYYWYYSYSGIPLFDYWGQGTQVTVSS | low polyreactivity |
| QVQLVESGGGLVQAGGSLRLSCAASGYTFSLYAMGWYRQAPGKERELVAAISSGDRTFYADSVKGRFTISRDNAKNTVYLQMNSLKPEDTAVYYCAARRYYVASIYRYDSWGQGTQVTVSS | high polyreactivity |
| QVQLVESGGGLVQAGGSLRLSCAASGYTFSPNDMGWYRKAPGKERELVAAITSSVGSTYYADSVKGRFTISRDNAKNTVYLQMNSLKPEDTAVYYCARTYQVGDSIDDYWGQGTQVTVSS | low polyreactivity |
| QVQLVESGGGLVQAGGSLRLSCAASGYTFSQNAMGWYRQAPGKERELVAAITWSGAGTYYADSVKGRFTISRDNAKNTVYLQMNSLKPEDTAVYYCAAREWTSQDRQHNYWGQGTQVTVSS | low polyreactivity |
| QVQLVESGGGLVQAGGSLRLSCAASGYTFSSNAMGWYRQATGKVSELVATNSSGGSTYYADSVKGRFTISRDNAKNTVYLQMYSLKPEDTAVYYCAADDLGWWFYSGGEDYYYWGQGTQVTVSS | low polyreactivity |
| QVQLVESGGGLVQAGGSLRLSCAASGYTFSSYTMGWYRQAPRKERELVAAITYSGGSTYYADSVKGRFTISRDNAKNTVYLQMNSLKPEDTAVYYCNARGRYAYAYWGQGTQVTVSS | low polyreactivity |
| QVQLVESGGGLVQAGGSLRLSCAASGYTFSVNALGWYRQAPGKERELVATINSSGGGTYYADSVKGRFTISRDNAKYTVYLQMNSLKPEDTAVFYCAADGYWYGDIYPSDYRWYDYWGQGTQVTVSS | low polyreactivity |
| QVQLVESGGGLVQAGGSLRLSCAASGYTFSYYAMGWYRQAPGKERELVARITYSGGSTYYADSVKGRFTISRDNAKNTVYLQMNSLKPEDTAVYFCAARLRYPYWYYNWGQGTQVTVSS | high polyreactivity |
| QVQLVESGGGLVQAGGSLRLSCAASGYTFTGYAMGWYRQAPGKERELVAAITSIGGSTYYADSVKGRFTISRDNAKTTVYLQMNSLKPEDTAVYYCAKDALVIDGGGGYDYWGQGTQVTVSS | low polyreactivity |
| QVQLVESGGGLVQAGGSLRLSCAASGYTFTIYAMGWYRQAPGKQRELVAAITGRGGRTNYADSVKGRFTISRDNAKNTVYLQMNSLKPEDTAVYYCNAVTKVVYHGPYGYDYWGQGTQVTVSS | high polyreactivity |
| QVQLVESGGGLVQAGGSLRLSCAASGYTFTSNDMGWYRQAPGKERELFAAITRVGSTNYADSVKGRFTISRDNAKNTVYLQMNSLKPEDTAVYYCAADLWQRHYLVGFGIRYDYWGQGTQVTVSS | low polyreactivity |
| QVQLVESGGGLVQAGGSLRLSCAASGYTFTVYAMGWYRQAPGKERELVAAITWNGASTYYADSVKARFTISRDNAKKTVYLQMNSLKPEDTAVYNCADPNYFYRDRSRLDYWGQGTQVTVSS | low polyreactivity |
| QVQLVESGGGLVQAGGSLRLSCAASGYTFVLYAMGWYRQAPGKERELVAAIRWSGGTTYYADSVKGRFTISRDNAKNTVYCQMNSLKPEDTAVYYCAGWDYTGNVVTGDYWGQCTQVTVSS | high polyreactivity |
| QVQLVESGGGLVQAGGSLRLSCAASGYTFVNYAMGWYRQAPGKERELVAAITSRGSSTYYADSVKGRFTISRDNAKNTVYLQMKSLKPEDTAVYYCFVHVRNHDYWGQGTQVTVSS | high polyreactivity |

| Sequence | polyreactivity (PSR sort gate) |
| --- | --- |
| QVQLVESGGGLVQAGGSLRLSCAASGYTFVTNAMGWYRQAPGKERELVAAITTVGSTNYADSVKGRFTISRDNAKNTVYLQMNSLKPEDTAVYYCNANWYEWYDWGQGTQVTVSS | low polyreactivity |
| QVQLVESGGGLVQAGGSLRLSCAASGYTFYGYAMGWYRQAPGKERELVAAISGSGGSTYYADSVKGRFTISRDNAKNTVYLQMNSLKPEDTAFYYCNKARYAIYRGDGYDYWGQGTQVTVSS | high polyreactivity |
| QVQLVESGGGLVQAGGSLRLSCAASGYTFYIYAMGWYRQAPGKERELVATISSSGGGTYYADSVKGRFTISRDNAKNTVYLQMNSLNPEDTAVYYCNADGWYWQAQGYDYWGQGTQVTVSS | low polyreactivity |
| QVQLVESGGGLVQAGGSLRLSCAASGYTFYQNAMGWYRQAPGKERELVAAITFRTGSTYYADSVKGRFTISRDNAKNTVYLQMNSLKPEDTAVYYCAATRFLRDWWYGYWGQGTQVTVSS | low polyreactivity |
| QVQLVESGGGLVQAGGSLRLSCAASGYTFYSNAMGSYRQAPGKERELVASIRSRGRSTYYADSVKGRFTISRDNAKNTVYFQMNSLKPEDTAVYYCAALPNTPAVYAYDYWGQGTQVTVSS | low polyreactivity |
| QVQLVESGGGLVQAGGSLRLSCAASGYTFYSYALGWYRQAPGKERELVAAITSGGRTNYADSVKGRFTISRDNAKNTVYLQMNSLKPEDTAVYYCAAYVFRAYGRYYYWGQGTQVTVSS | high polyreactivity |
| QVQLVESGGGLVQAGGSLRLSCAASGYTFYTNAMGWYIQAPGKERELVASIRSRGRSTYYADSVKGRFTISRDNAKNTVYLQMNSLKPEDTAVFYCAALPNIPAVYAYDYWGQGTQVTVSS | low polyreactivity |
| QVQLVESGGGLVQAGGSLRLSCAASGYTFYWNAMGWYRQAPGKEREFVASFSGTSTYYADSVKGRFTISRDNAKNTVYLQMNSLKREDTAVYYCNARLTLGPRKYEYWGPGTQVTVSS | low polyreactivity |
| QVQLVESGGGLVQAGGSLRLSCAASGYTFYYAMGWYRQAPGKERELVAAISAGGGRTYYADSVKGRFTISRDNAKNTVYLQMNSLKPEDTAVYYCNRVYRLTAYGYDYWGQGTQVTVSS | high polyreactivity |
| QVQLVESGGGLVQAGGSLRLSCAASGYTFYYNAMGWYRQATGKERELVAAISWSTSGTYYADSVKGRFTISRDNAKNTVYLQMYSLKPEYTAVYYCAAPSSGTITYDYWGQGTQVTVSS | low polyreactivity |
| QVQLVESGGGLVQAGGSLRLSCAASGYTIIVNAMGWYRQAPGKERELVAAISWSSVSTYYADSVKGRFTISRDNAKNTVYLQMNSLKPEDTAVYYCAAEGYDYSQWFDYWGQGTQVTVSS | high polyreactivity |
| QVQLVESGGGLVQAGGSLRLSCAASGYTIRGYVMGWYRQAPGKERELVAAISASGGRTYYADSVKGRFTISRDYATNTVYLLMNSLKPEDTAVYYCAADSSRTPLEFDYWGQGTQVTVSS | high polyreactivity |
| QVQLVESGGGLVQAGGSLRLSCAASGYTIVSYAMGWERQAPGKERELVASIRWRGGRTYYADSVKGRFTISRDNAKNTVYLQMNSLKPEDTAVYYCAASTYYSPYVAHYGYWGQGTQVTVSS | high polyreactivity |
| QVQLVESGGGLVQAGGSLRLSCAASGYTLDNYAMGWYRQAPGKERELVAGITFSGGSTFYADSVKGRFTISRDNAKNTVYLQMNSLKPEDTAVYYCAADAEFQADHKYGYWGQGSQVTVSS | low polyreactivity |
| QVQLVESGGGLVQAGGSLRLSCAASGYTLSVNAMGWYRQAPGKERELVATIDFGGGSTYYADSVKGRFTISRDNAKNTVYLQMNSLKPEDTAVYYCNTEWTSLSKSSLGGRYDHWGQGTQVTVSS | low polyreactivity |
| QVQLVESGGGLVQAGGSLRLSCAASGYTSRYYAMGWYRQAPGKERELVAAITSGGSTNYADSVKGRFTISRDNAKNTVYLQMNSLKPEDTAVYYCAKGQYPWSYVLQTYIYDYWGQGTQVTVSS | low polyreactivity |
| QVQLVESGGGLVQAGGSLRLSCAASGYVMGWYRQAPGKEREMVAAITRGTSTYYADSVKGRFTISRDNAKNTVYLQLNSLKPEDTAVYFCADRHNTGSSRHYGYWGQGTQVTVSS | low polyreactivity |
| QVQLVESGGGLVQAGGSLRLSCAASGYVYVMGWYRQAPGKERELVAAISKNGGSTYYADSVKGRFTISRYNAKNTVYLQMNSLKPEDTAVYYCAAVSYHKTEYDYWGQGTQVTVSS | high polyreactivity |
| QVQLVESGGGLVQAGGSLRLSCAASGYYAMGWYRQAPGKERELVPAITWSGGTTYYADSVKGRFTISRDNAKNTVYLQMNSLKPEDTAVYYCNADFVRYTRHKKYYYWGQGTQVTVSS | low polyreactivity |
| QVQLVESGGGLVQAGGSLRLSCAASRFTFSYYAMVWYRKAHVKERELVAAISWRGGTPYADSVKGRFTISRDNAKKTVYLQMNSLKPEDTAVYYCNTAYQVYWRGNYWGQGTQVTVSS | high polyreactivity |
| QVQLVESGGGLVQAGGSLRLSCAASRIIFSYNPMGWYRQAPGKERELVAASSYGGRTYYAVSVKGRFTISRDNAKNTVDLQMKSLKPEDTAVYYCATRSPHRLYGDYYDYWGLGTQVTVSS | high polyreactivity |
